Each block holds one binder with its values, some of them ahead of it.
Assays:
4H40-bN = target: T1, 4H40-bN; test: two-hybrid library CCNG1;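 note: natural log of median RNA to DNA barcode read ratio; higher means stronger binding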
T1 chain: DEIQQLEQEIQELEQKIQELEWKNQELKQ

4H754-bH = target: T2, 4H754-bH; test: two-hybrid library CCNG1;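 note: natural log of median RNA to DNA barcode read ratio; higher means stronger binding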
T2 chain: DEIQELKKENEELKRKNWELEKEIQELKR

4H477-bN = target: T3, 4H477-bN; test: two-hybrid library CCNG1;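 note: natural log of median RNA to DNA barcode read ratio; higher means stronger binding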
T3 chain: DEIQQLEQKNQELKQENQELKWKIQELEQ

4H741-bN = target: T4, 4H741-bN; test: two-hybrid library CCNG1;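 note: natural log of median RNA to DNA barcode read ratio; higher means stronger binding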
T4 chain: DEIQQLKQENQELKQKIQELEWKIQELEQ

4H492-bN = target: T5, 4H492-bN; test: two-hybrid library CCNG1;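 note: natural log of median RNA to DNA barcode read ratio; higher means stronger binding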
T5 chain: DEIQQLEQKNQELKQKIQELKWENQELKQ

4H348-bN = target: T6, 4H348-bN; test: two-hybrid library CCNG1;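 note: natural log of median RNA to DNA barcode read ratio; higher means stronger binding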
T6 chain: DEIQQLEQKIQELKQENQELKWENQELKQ

4H850-AA = target: T7, 4H850-AA; test: two-hybrid library CCmax; conditions: mean of both orientations
T7 chain: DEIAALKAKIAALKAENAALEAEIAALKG

4H310-AA = target: T8, 4H310-AA; test: two-hybrid library CCmax; conditions: mean of both orientations
T8 chain: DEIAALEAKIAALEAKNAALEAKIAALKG

4H3410-AA = target: T9, 4H3410-AA; test: two-hybrid library CCmax; conditions: mean of both orientations
T9 chain: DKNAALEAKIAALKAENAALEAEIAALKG

4H930-AA = target: T10, 4H930-AA; test: two-hybrid library CCmax; conditions: mean of both orientations
T10 chain: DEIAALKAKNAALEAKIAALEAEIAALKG

4H3120-AA = target: T11, 4H3120-AA; test: two-hybrid library CCmax; conditions: mean of both orientations
T11 chain: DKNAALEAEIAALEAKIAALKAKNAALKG

4H2865-AA = target: T12, 4H2865-AA; test: two-hybrid library CCmax; conditions: mean of both orientations
T12 chain: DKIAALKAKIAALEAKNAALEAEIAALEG

4H2473-AA = target: T13, 4H2473-AA; test: two-hybrid library CCmax; conditions: mean of both orientations
T13 chain: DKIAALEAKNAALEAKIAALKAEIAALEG

4H458-AA = target: T14, 4H458-AA; test: two-hybrid library CCmax; conditions: mean of both orientations
T14 chain: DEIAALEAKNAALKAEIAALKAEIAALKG

4H629-AA = target: T15, 4H629-AA; test: two-hybrid library CCmax; conditions: mean of both orientations
T15 chain: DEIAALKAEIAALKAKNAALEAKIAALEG

4H891-AA = target: T16, 4H891-AA; test: two-hybrid library CCmax; conditions: mean of both orientations
T16 chain: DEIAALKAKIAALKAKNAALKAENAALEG

4H3865-AA = target: T17, 4H3865-AA; test: two-hybrid library CCmax; conditions: mean of both orientations
T17 chain: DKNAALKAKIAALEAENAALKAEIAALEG

4H2389-AA = target: T18, 4H2389-AA; test: two-hybrid library CCmax; conditions: mean of both orientations
T18 chain: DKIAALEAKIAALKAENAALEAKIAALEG

4H909-AA = target: T19, 4H909-AA; test: two-hybrid library CCmax; conditions: mean of both orientations
T19 chain: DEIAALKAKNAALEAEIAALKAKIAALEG

4H3381-AA = target: T20, 4H3381-AA; test: two-hybrid library CCmax; conditions: mean of both orientations
T20 chain: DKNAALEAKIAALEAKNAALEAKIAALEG

4H3009-AA = target: T21, 4H3009-AA; test: two-hybrid library CCmax; conditions: mean of both orientations
T21 chain: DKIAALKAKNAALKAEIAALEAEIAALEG

4H485-AA = target: T22, 4H485-AA; test: two-hybrid library CCmax; conditions: mean of both orientations
T22 chain: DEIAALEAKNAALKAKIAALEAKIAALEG

4H2725-AA = target: T23, 4H2725-AA; test: two-hybrid library CCmax; conditions: mean of both orientations
T23 chain: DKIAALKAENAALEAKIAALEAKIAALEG

4H3697-AA = target: T24, 4H3697-AA; test: two-hybrid library CCmax; conditions: mean of both orientations
T24 chain: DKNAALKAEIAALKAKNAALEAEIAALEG

4H745-AA = target: T25, 4H745-AA; test: two-hybrid library CCmax; conditions: mean of both orientations
T25 chain: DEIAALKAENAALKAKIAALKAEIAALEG

4H3130-AA = target: T26, 4H3130-AA; test: two-hybrid library CCmax; conditions: mean of both orientations
T26 chain: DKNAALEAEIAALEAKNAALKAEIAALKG

4H2274-AA = target: T27, 4H2274-AA; test: two-hybrid library CCmax
T27 chain: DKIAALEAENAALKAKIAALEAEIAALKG

4H2438-AA = target: T28, 4H2438-AA; test: two-hybrid library CCmax; conditions: mean of both orientations
T28 chain: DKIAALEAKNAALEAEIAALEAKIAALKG

4H536-AA = target: T29, 4H536-AA; test: two-hybrid library CCmax; conditions: mean of both orientations
T29 chain: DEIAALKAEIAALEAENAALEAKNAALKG

4H570-AA = target: T30, 4H570-AA; test: two-hybrid library CCmax; conditions: mean of both orientations
T30 chain: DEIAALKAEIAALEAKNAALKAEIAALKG

4H3590-AA = target: T31, 4H3590-AA; test: two-hybrid library CCmax; conditions: mean of both orientations
T31 chain: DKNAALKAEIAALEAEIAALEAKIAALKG

4H710-AA = target: T32, 4H710-AA; test: two-hybrid library CCmax; conditions: mean of both orientations
T32 chain: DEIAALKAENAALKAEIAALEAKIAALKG

4H2277-AA = target: T33, 4H2277-AA; test: two-hybrid library CCmax
T33 chain: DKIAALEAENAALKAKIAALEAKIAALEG

4H2330-AA = target: T34, 4H2330-AA; test: two-hybrid library CCmax; conditions: mean of both orientations
T34 chain: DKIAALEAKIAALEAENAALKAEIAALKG

4H94-AA = target: T35, 4H94-AA; test: two-hybrid library CCmax; conditions: mean of both orientations
T35 chain: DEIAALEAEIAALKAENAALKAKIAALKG

4H3165-AA = target: T36, 4H3165-AA; test: two-hybrid library CCmax; conditions: mean of both orientations
T36 chain: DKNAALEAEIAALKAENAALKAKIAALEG

4H797-AA = target: T37, 4H797-AA; test: two-hybrid library CCmax; conditions: mean of both orientations
T37 chain: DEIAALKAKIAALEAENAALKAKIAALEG

4H3753-AA = target: T38, 4H3753-AA; test: two-hybrid library CCmax; conditions: mean of both orientations
T38 chain: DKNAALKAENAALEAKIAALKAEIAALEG

4H3016-AA = target: T39, 4H3016-AA; test: two-hybrid library CCmax; conditions: mean of both orientations
T39 chain: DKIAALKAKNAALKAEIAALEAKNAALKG

4H3395-AA = target: T40, 4H3395-AA; test: two-hybrid library CCmax; conditions: mean of both orientations
T40 chain: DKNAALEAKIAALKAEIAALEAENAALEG

4H2649-AA = target: T41, 4H2649-AA; test: two-hybrid library CCmax; conditions: mean of both orientations
T41 chain: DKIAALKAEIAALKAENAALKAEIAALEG

4H2698-AA = target: T42, 4H2698-AA; test: two-hybrid library CCmax; conditions: mean of both orientations
T42 chain: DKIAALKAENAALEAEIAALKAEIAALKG

- interaction score (4H40-bN): -1
- interaction score (4H754-bH): -0.689
- interaction score (4H477-bN): -1.82
- interaction score (4H741-bN): -0.495
- interaction score (4H492-bN): 0.214
- interaction score (4H348-bN): -1.05
Binder: DEIQQLEQKIQELKQENQELKWENQELKQ [4H348-bN]

- interaction score (4H850-AA): -1.39
- interaction score (4H310-AA): -1.25
- interaction score (4H3410-AA): -1.36
- interaction score (4H930-AA): -1.05
- interaction score (4H3120-AA): -1.33
- interaction score (4H2865-AA): -1.31
- interaction score (4H2473-AA): -0.485
- interaction score (4H458-AA): 0.0218
- interaction score (4H629-AA): -1.47
- interaction score (4H891-AA): -1.73
- interaction score (4H3865-AA): -0.926
- interaction score (4H2389-AA): -0.987
- interaction score (4H909-AA): -1.73
- interaction score (4H3381-AA): -1.35
- interaction score (4H3009-AA): 0.108
- interaction score (4H485-AA): -0.34
- interaction score (4H2725-AA): 0.181
- interaction score (4H3697-AA): -1.45
- interaction score (4H745-AA): 0.497
- interaction score (4H3130-AA): -1.87
- interaction score (4H2274-AA): 2.45
- interaction score (4H2438-AA): 0.189
- interaction score (4H536-AA): -1.54
- interaction score (4H570-AA): -1.8
- interaction score (4H3590-AA): -0.977
- interaction score (4H710-AA): 0.53
- interaction score (4H2277-AA): 0.21
- interaction score (4H2330-AA): -1.13
- interaction score (4H94-AA): -1.32
- interaction score (4H3165-AA): -1.19
- interaction score (4H797-AA): -1.27
- interaction score (4H3753-AA): -1.17
- interaction score (4H3016-AA): -1.01
- interaction score (4H3395-AA): -1.6
- interaction score (4H2649-AA): -1.69
- interaction score (4H2698-AA): 0.894
Binder: DKIAALEAENAALKAKIAALEAEIAALKG [4H2274-AA]

Reference: PMC10397247
